Experimental findings from patent publication US20040213780A1 are described below.

Holding throughout (experiment): cell-based or functional assay
Experiment [1] has as its target purified Sp1 (Promega Corp.) (UniProt P08047).
Experiment [2] concerns the target Sp1 in nuclear extracts of primary rat striatal neurons (endogenous) (rat) (UniProt Q01714).
Experiment [3] has as its target Sp1 in human brain tissue (endogenous) (human) (UniProt P08047).

Chain of Sp1 in human brain tissue (endogenous) (human) (P08047 2-785 limits assumed): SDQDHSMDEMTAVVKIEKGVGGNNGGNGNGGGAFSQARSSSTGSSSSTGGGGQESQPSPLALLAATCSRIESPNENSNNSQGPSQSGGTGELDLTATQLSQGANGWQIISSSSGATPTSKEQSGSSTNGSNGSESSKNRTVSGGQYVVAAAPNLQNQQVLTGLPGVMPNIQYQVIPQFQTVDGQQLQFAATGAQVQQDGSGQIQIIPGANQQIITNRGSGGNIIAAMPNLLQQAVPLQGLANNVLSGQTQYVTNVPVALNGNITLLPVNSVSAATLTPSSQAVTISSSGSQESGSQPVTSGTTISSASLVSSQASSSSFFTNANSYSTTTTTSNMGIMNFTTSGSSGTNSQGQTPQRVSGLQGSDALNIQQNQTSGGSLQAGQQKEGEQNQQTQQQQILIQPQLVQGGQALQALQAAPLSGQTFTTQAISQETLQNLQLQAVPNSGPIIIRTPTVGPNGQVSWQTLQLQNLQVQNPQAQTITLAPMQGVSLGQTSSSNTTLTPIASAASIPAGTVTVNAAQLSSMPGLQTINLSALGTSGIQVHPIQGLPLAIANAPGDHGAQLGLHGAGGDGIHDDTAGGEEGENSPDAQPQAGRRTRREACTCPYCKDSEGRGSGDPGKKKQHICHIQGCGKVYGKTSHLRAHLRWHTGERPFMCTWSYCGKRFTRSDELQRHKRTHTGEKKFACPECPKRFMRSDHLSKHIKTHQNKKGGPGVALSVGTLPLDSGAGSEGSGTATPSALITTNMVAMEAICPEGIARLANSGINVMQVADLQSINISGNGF
Chain of purified Sp1 (Promega Corp.) (P08047 8-785 limits assumed): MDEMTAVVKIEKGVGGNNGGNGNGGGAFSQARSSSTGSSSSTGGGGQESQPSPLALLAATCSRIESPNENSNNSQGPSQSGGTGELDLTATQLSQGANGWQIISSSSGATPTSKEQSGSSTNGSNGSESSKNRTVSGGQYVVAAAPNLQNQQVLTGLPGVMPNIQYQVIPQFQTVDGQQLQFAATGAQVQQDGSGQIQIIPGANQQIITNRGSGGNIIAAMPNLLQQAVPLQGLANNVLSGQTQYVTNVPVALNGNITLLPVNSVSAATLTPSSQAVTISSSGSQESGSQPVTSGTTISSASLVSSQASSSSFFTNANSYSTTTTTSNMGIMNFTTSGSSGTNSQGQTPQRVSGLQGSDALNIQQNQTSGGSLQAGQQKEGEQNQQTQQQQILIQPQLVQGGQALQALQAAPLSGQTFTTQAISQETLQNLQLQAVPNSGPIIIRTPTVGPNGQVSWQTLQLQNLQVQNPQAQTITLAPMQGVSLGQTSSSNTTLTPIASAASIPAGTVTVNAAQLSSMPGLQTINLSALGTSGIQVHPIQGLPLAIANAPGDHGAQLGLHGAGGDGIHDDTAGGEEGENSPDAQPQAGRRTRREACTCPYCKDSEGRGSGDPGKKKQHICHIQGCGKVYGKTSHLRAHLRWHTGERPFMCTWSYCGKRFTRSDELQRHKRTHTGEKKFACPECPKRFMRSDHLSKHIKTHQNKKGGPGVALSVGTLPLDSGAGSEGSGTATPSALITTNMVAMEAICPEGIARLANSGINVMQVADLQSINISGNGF
Chain of Sp1 in nuclear extracts of primary rat striatal neurons (endogenous) (rat) (Q01714 2-786 limits assumed): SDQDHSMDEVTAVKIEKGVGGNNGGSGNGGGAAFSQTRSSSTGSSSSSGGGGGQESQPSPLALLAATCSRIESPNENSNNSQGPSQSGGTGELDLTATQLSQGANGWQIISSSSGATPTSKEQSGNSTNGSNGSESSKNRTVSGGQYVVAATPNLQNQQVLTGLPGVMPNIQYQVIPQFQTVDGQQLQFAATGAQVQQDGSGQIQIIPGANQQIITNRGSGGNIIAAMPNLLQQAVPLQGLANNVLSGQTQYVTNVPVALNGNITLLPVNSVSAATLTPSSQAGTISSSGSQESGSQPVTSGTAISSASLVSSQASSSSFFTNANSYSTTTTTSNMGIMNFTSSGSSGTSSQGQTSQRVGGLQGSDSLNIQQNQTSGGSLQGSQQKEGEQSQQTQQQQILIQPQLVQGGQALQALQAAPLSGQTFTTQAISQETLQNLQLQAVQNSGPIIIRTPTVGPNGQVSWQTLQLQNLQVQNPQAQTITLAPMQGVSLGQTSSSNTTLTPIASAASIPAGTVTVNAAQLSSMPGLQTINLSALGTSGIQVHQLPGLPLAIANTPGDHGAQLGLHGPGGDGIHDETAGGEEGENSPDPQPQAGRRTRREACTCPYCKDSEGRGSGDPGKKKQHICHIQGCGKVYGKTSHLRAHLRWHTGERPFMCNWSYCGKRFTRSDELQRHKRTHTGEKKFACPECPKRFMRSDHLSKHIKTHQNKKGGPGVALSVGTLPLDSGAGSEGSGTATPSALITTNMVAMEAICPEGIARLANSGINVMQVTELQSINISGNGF

In the case of “glutathione S-transferase (GST)-huntingtin fusion protein with 20 glutamines (from UniProt P42858 1-88)”, the reduction in Sp1 binding to a labeled consensus Sp1 site (EMSA with purified proteins) in experiment [1] turned out to be 20%.
In turn, “glutathione S-transferase (GST)-huntingtin fusion protein with 51 glutamines (from UniProt P42858 1-88)” yielded an inhibition of Sp1 binding to a labeled consensus Sp1 site (EMSA with purified proteins) in experiment [1] of 70%.
Take “mutant full-length huntingtin with 75 glutamines (HttQ75), P42858 1-3142”: the inhibition of Sp1 binding to a labeled D2 promoter fragment (EMSA, nuclear extracts of transfected striatal cells) in experiment [2] is 55%.
Regarding “huntingtin in human HD brain tissue (endogenous) (from UniProt P42858 1-3142)”, in experiment [3], the decrease of Sp1 binding to its D2 binding site (EMSA, nuclear extracts of caudate, grade 1 HD brain against control brain) is 39% and the decrease of Sp1 binding to its D2 binding site (EMSA, nuclear extracts of caudate, grade 4 HD brain against control brain) came out at 48%.
